Measured values: PMC11169542, “A probe for NIR-II imaging and multimodal analysis of early Alzheimer’s disease by targeting CTGF” (Nature Communications, 2024)
Ends that are not written are not given here.

Assays:
[1] = tested on: U87MG cells; assay: Cytotoxicity of DGC (CCK-8); type: cell-based, human; set-up: key to Cell viability: viability relative to control cells (control = 1); conditions: for Cell viability: 24 h, CCK-8, normalized to control
Procedure: U87MG, SH-SY5Y, and CTX TNA2 cells were seeded into 96-well plates at a density of 5 × 10^3 cells per well and were incubated at 37 °C for 24 h. […] Next, 10 µL of a colorimetric Cell Counting Kit (CCK-8) reagent diluted with 100 µL medium was added to each well, and incubated for 30 min, The absorbance at 450 nm was measured using a microplate reader (Molecular Devices, San Jose, CA, USA). The relative viability was normalized to control cells. The experiment was performed in triplicates.

[2] = target: T1, CTGF (Mus musculus, UniProt P29268); assay: DGC fluorescence labelling of AD mouse brain sections in vitro; set-up: species or system APP/PS1 and wild-type C57BL/6J mice; conditions: 200 μM DGC 4 °C overnight
T1 construct: brain sections of the age-matched wild-type C57BL/6J mice were used as controls; from tissue; host or cells: brain of APP/PS1 transgenic and wild-type C57BL/6J mice (sections, living animal, perfused isolated brain)
T1 sequence (P29268 26-348): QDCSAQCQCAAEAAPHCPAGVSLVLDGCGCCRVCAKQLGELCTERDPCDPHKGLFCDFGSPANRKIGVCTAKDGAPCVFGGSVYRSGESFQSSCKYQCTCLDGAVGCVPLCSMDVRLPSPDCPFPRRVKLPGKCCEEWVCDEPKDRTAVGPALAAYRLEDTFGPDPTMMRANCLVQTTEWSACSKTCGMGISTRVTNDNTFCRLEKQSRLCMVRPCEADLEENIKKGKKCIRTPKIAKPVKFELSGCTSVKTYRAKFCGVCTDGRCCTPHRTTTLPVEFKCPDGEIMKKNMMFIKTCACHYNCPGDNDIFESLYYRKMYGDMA
Source text: To evaluate the expression of CTGF in the brain of AD mice and the efficacy of DGC in vitro, brain sections of APP/PS1 transgenic mice (derived from C57BL/6J) from 1-month to 9-month-old (1-, 2-, 3-, 6- and 9-month-old, female, n = 3) were used as AD model, and brain sections of the age-matched wild-type C57BL/6J mice were used as controls (female, n = 3). The brain sections were subjected to CTGF antibody immunofluorescence staining and DGC fluorescence imaging. The brains were collected and fixed with 4% PFA. The embedded brain was then sectioned using a microtome into 5-μm thick consecutive sections. The brain sections were immersed in Tris-EDTA buffer (pH = 9.0) at 95 °C for 15 min. The brain sections were then incubated with 3% bovine serum albumin for 1.5 h. Then, the brain sections were stained overnight at 4 °C with an anti-CTGF primary antibody (dilution 1:50, Abcam, Cat#ab6992). After restoring room temperature, they were washed with TBST (pH = 7.4, 3 × 5 min) and incubated with FITC-labeled Goat Anti-Rabbit IgG (h +L) (1: dilution 1:200, Bioss, Cat#bs-0370R-FITC) for 1 h. The brain sections were washed with TBST (pH = 7.4, 3 × 5 min). Finally, overnight staining with DGC (200 μM) at 4 °C and fluorescence imaging were obtained by the CLSM system.
Brain sections from female APP/PS1 double transgenic mice were used as AD models, and brain sections of the age-matched female wild-type C57BL/6J mice were used as controls to evaluate the availability of DGC in vitro. Three-month-old APP/PS1 mice (early-stage, unestablished Aβ plaques) and 9-month-old APP/PS1 mice (late-stage, established Aβ plaques) were chosen for comparison. All mice were purchased from Beijing HFK Bioscience Co., Ltd and handled in accordance with the Ethics Committee of Beijing University of Technology, China. To avoid the interference of strong background fluorescence signals of blood in cerebral microvessels, the blood vessels were emptied by cardiac perfusion with saline and PFA before dissociating the brain. After the completion of perfusion, the brain was collected and fixed with PFA for a longer time ex vivo. The embedded brain was then sectioned using a microtome into 5-μm thick continuous sections. The brain sections were labeled with DGC or CTGF, GFAP, and Aβ antibodies. Deparaffinization was performed first and antigen retrieval was implemented with immersion of the brain sections into Tris-EDTA buffer (pH = 9.0) at 95 °C for 15 min. Then, the brain sections were incubated with 3% bovine serum albumin for 1.5 h.
For fluorescence imaging of CTGF, the brain sections were stained with anti-CTGF primary antibody (dilution 1:50, Abcam, Cat#ab6992), anti-glial fibrillary acidic protein (GFAP) primary antibody (diluted 1:400, Proteintech, Cat#16825-1-AP) or anti-Aβ 17-24 (4G8, diluted 1:1000, BioLegend, Cat#SIG-39200) at 4 °C for 4 h. After they were washed by TBST (pH = 7.4, 3 × 5 min) at room temperature, the brain sections were incubated with the secondary antibody (FITC-labeled Goat Anti-Rabbit IgG (H + L) (1: dilution 1:200, Bioss, Cat#bs-0370R-FITC) for 1 h. After the brain sections were washed by TBST (pH = 7.4, 3 × 5 min). Finally, the brain sections were co-stained by DGC (200 μM) at 4 °C overnight, and the staining results were acquired on the CLSM system.

Q: Which results are given for “DGC: CTGF-targeting peptide-coated gold nanocluster: one Au26 gold nanocluster coated by eight DAG cyclic peptides, NIR-II and red fluorescence (CDAGRKQKC; also: cyclic peptide, ring not given here, eight peptides on one Au26 nanocluster via Cys Au-S bonds)”?
A: Cell viability ([1]; 5 μM (Au content), replicate 1): 1.188; Cell viability ([1]; 5 μM (Au content), replicate 2): 1.205; Cell viability ([1]; 5 μM (Au content), replicate 3): 1.21; Cell viability ([1]; 10 μM (Au content), replicate 1): 1.185; Cell viability ([1]; 10 μM (Au content), replicate 2): 1.16; Cell viability ([1]; 10 μM (Au content), replicate 3): 1.163; Cell viability ([1]; 20 μM (Au content), replicate 1): 1.112; Cell viability ([1]; 20 μM (Au content), replicate 2): 1.134; Cell viability ([1]; 20 μM (Au content), replicate 3): 1.136; Cell viability ([1]; 50 μM (Au content), replicate 1): 1.152; Cell viability ([1]; 50 μM (Au content), replicate 2): 1.117; Cell viability ([1]; 50 μM (Au content), replicate 3): 1.103; Cell viability ([1]; 100 μM (Au content), replicate 1): 1.07; Cell viability ([1]; 100 μM (Au content), replicate 2): 1.085; Cell viability ([1]; 100 μM (Au content), replicate 3): 1.085; Cell viability ([1]; 200 μM (Au content), replicate 1): 1.067; Cell viability ([1]; 200 μM (Au content), replicate 2): 1.053; Cell viability ([1]; 200 μM (Au content), replicate 3): 1.071; Cell viability ([1]; 500 μM (Au content), replicate 1): 1.0892; Cell viability ([1]; 500 μM (Au content), replicate 2): 1.102; Cell viability ([1]; 500 μM (Au content), replicate 3): 1.058; cytotoxicity ([1]; DGC incubation 24 h, CCK-8): did not cause any obvious cytotoxicity; FL intensity of DGC on brain section ([2]; 3-month-old APP/PS1 mouse brain section, section 1): 0.02124; FL intensity of DGC on brain section ([2]; 3-month-old APP/PS1 mouse brain section, section 2): 0.02275; FL intensity of DGC on brain section ([2]; 3-month-old APP/PS1 mouse brain section, section 3): 0.01511; FL intensity of DGC on brain section ([2]; 9-month-old APP/PS1 mouse brain section, section 1): 0.0369; FL intensity of DGC on brain section ([2]; 9-month-old APP/PS1 mouse brain section, section 2): 0.0329; FL intensity of DGC on brain section ([2]; 9-month-old APP/PS1 mouse brain section, section 3): 0.0406; FL intensity of DGC on brain section ([2]; WT mouse brain section, section 1): 0.00435; FL intensity of DGC on brain section ([2]; WT mouse brain section, section 2): 0.0071; FL intensity of DGC on brain section ([2]; WT mouse brain section, section 3): 0.0055
